Read-outs that look alike come from different tables or passages of the source.
Assays:
RecJ (native wild-type) [1] = target: T1, RecJ (native wild-type) (Escherichia coli, UniProt P21893 1-577); assay: EMSA
T1 sequence: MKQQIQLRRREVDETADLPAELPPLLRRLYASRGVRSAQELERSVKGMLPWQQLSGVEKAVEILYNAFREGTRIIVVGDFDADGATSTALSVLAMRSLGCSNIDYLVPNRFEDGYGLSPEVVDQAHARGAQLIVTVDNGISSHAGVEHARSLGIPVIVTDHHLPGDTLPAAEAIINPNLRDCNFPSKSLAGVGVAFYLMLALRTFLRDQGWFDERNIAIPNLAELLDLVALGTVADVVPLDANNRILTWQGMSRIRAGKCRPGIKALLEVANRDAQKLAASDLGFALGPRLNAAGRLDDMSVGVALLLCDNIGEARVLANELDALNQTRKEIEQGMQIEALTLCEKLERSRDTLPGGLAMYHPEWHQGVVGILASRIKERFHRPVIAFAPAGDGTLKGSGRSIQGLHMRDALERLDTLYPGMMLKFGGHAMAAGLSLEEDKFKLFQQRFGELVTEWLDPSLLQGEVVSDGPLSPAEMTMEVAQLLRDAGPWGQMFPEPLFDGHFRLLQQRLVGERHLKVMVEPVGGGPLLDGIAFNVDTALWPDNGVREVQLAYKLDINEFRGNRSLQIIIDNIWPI

RecJ (native wild-type) [2] = target: T1, RecJ (native wild-type); assay: EMSA; remark: listed apart in the source
RecJ (native wild-type) [3] = target: T1, RecJ (native wild-type); assay: EMSA; remark: listed apart in the source
[4] = target: RecJ (native wild-type);SSB (Escherichia coli;Escherichia coli?, UniProt P21893;P0AGE0 1-577;2-178, |); assay: EMSA, supershift
SSB = SSB (UniProt P0AGE0 2-178); assay: EMSA
RecJf (MBP-RecJ fusion) = target: T2, RecJf (MBP-RecJ fusion) (UniProt P21893 1-577); assay: EMSA
T2 sequence: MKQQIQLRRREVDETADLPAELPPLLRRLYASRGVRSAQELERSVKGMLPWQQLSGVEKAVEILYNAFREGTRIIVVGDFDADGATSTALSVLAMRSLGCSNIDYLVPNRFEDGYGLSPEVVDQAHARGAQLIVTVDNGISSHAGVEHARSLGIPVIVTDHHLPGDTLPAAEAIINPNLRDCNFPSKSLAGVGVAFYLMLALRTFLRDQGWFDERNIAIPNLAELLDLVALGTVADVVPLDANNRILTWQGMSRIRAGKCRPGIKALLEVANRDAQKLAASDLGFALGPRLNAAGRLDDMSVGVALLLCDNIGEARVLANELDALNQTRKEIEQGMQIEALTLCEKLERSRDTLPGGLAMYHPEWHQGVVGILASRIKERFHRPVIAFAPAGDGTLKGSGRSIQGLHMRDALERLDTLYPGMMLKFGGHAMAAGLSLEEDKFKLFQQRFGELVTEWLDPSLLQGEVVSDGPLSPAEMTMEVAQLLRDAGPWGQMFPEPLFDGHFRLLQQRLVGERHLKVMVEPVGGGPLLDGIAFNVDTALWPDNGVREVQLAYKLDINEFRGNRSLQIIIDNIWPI

RecJ (native wild-type) [5] = target: T1, RecJ (native wild-type); assay: EMSA; remark: listed apart in the source

Chain of SSB (P0AGE0 2-178): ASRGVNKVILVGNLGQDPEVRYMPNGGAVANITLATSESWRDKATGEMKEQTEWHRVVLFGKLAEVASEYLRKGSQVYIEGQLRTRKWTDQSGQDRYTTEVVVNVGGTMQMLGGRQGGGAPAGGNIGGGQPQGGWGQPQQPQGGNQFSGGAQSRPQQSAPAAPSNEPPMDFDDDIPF
Chain of RecJ (native wild-type);SSB (P0AGE0 2-178, one chain of several): as the sequence (P0AGE0 2-178) above

B1: A/C 10 nt 5' tail (dsDNA)
DNA 1: GCCCAGGTGGCAGGCCCTAGGGTGGAGGGGAGGCCGCCGGCATGGGGACGCGATGGGCGGAGGCG
DNA 2: CGCCTCCGCCCATCGCGTCCCCATGCCGGCGGCCTCCCCTCCACCCTAGGGCCTG
modifications: 5' phosphate on A from labeling
Kd (RecJ (native wild-type) [1]): 9.5 nM

B2: A 7 nt 5' tail (dsDNA)
DNA 1: GCCCAGGTGGCAGGCCCTAGGGTGGAGGGGAGGCCGCCGGCATGGGGACGCGATGGGCGGAGGCG
DNA 2: CGCCTCCGCCCATCGCGTCCCCATGCCGGCGGCCTCCCCTCCACCCTAGGGCCTGCCA
modifications: 5' phosphate on A from labeling
binding result (RecJ (native wild-type) [2]): binds

B3: A/B 20 nt 5' tail (dsDNA)
DNA 1: GCCCAGGTGGCAGGCCCTAGGGTGGAGGGGAGGCCGCCGGCATGGGGACGCGATGGGCGGAGGCG
DNA 2: CGCCTCCGCCCATCGCGTCCCCATGCCGGCGGCCTCCCCTCCACC
modifications: 5' phosphate on A from labeling
Kd (RecJ (native wild-type) [1]): 33 nM

B4: A/D 4 nt 5' tail (dsDNA)
DNA 1: GCCCAGGTGGCAGGCCCTAGGGTGGAGGGGAGGCCGCCGGCATGGGGACGCGATGGGCGGAGGCG
DNA 2: CGCCTCCGCCCATCGCGTCCCCATGCCGGCGGCCTCCCCTCCACCCTAGGGCCTGCCACCT
modifications: 5' phosphate on A from labeling
binding result (RecJ (native wild-type) [3]): no binding

B5: A/E 65 bp duplex (dsDNA)
DNA 1: GCCCAGGTGGCAGGCCCTAGGGTGGAGGGGAGGCCGCCGGCATGGGGACGCGATGGGCGGAGGCG
DNA 2: CGCCTCCGCCCATCGCGTCCCCATGCCGGCGGCCTCCCCTCCACCCTAGGGCCTGCCACCTGGGC
modifications: 5' phosphate on A from labeling
binding result (RecJ (native wild-type) [3]): no binding

B6: A 5 nt 5' tail (dsDNA)
DNA 1: GCCCAGGTGGCAGGCCCTAGGGTGGAGGGGAGGCCGCCGGCATGGGGACGCGATGGGCGGAGGCG
DNA 2: CGCCTCCGCCCATCGCGTCCCCATGCCGGCGGCCTCCCCTCCACCCTAGGGCCTGCCACC
modifications: 5' phosphate on A from labeling
binding result (RecJ (native wild-type) [2]): no binding

B7: A 9 nt 5' tail (dsDNA)
DNA 1: GCCCAGGTGGCAGGCCCTAGGGTGGAGGGGAGGCCGCCGGCATGGGGACGCGATGGGCGGAGGCG
DNA 2: CGCCTCCGCCCATCGCGTCCCCATGCCGGCGGCCTCCCCTCCACCCTAGGGCCTGC
modifications: 5' phosphate on A from labeling
binding result (RecJ (native wild-type) [2]): binds

B8: A 8 nt 5' tail (dsDNA)
DNA 1: GCCCAGGTGGCAGGCCCTAGGGTGGAGGGGAGGCCGCCGGCATGGGGACGCGATGGGCGGAGGCG
DNA 2: CGCCTCCGCCCATCGCGTCCCCATGCCGGCGGCCTCCCCTCCACCCTAGGGCCTGCC
modifications: 5' phosphate on A from labeling
binding result (RecJ (native wild-type) [2]): binds

B9: oligonucleotide A (65mer) (ssDNA)
DNA: GCCCAGGTGGCAGGCCCTAGGGTGGAGGGGAGGCCGCCGGCATGGGGACGCGATGGGCGGAGGCG
modifications: 5' phosphate from labeling
binding result [4]: binds | binding result (SSB): binds | binding result (RecJf (MBP-RecJ fusion)): binds | binding result (RecJ (native wild-type) [5]): binds
